{
  "source": "the supplement of paper PMC7125110",
  "parents": {"B1": {"name": "glmS ribozyme (parent)", "chain": "AUAAAAGCGCCAGAACUACAGAAAUGUAGUUGACGAGGAGGAGGUUUAUCGAAUUUUCGGCGGAUGCCUCCAAA"}},
  "settings_in_all_cases": "with glucosamine-6-phosphate",
  "key": {"glucosamine-6-phosphate [1]": {"variants_of": "B1", "experiment": "self-cleavage kobs at 40 uM GlcN6P; higher = faster cleavage; RNA array", "procedure,_shortened": "(§1)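 Tiles bearing barcoded ribozyme variants, transcribed in situ by E. coli RNA polymerase on sequenced MiSeq chips, were imaged over ~14 h at 37 °C using a hybridised Cy3 probe. Glucosamine-6-phosphate was supplied at 40 μM to 10 mM in HEPES/KCl/Mg(OAc)2 buffer. kobs came from one- or two-exponential decay fits to normalised per-tile medians, and weighted Michaelis–Menten fits then provided kcat and KM.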"}, "glucosamine-6-phosphate [2]": {"variants_of": "B1", "experiment": "self-cleavage kobs at 160 uM GlcN6P; higher = faster cleavage; RNA array", "procedure,_shortened": "as §1"}, "glucosamine-6-phosphate [3]": {"variants_of": "B1", "experiment": "self-cleavage kobs at 10000 uM GlcN6P; higher = faster cleavage; RNA array", "procedure,_shortened": "as §1"}, "glucosamine-6-phosphate [4]": {"variants_of": "B1", "experiment": "self-cleavage kobs at 640 uM GlcN6P; higher = faster cleavage; RNA array", "procedure,_shortened": "as §1"}, "glucosamine-6-phosphate [5]": {"variants_of": "B1", "experiment": "self-cleavage kobs at 2500 uM GlcN6P; higher = faster cleavage; RNA array", "procedure,_shortened": "as §1"}},
  "note": "± gives the standard error. This sample holds only a part of the variants without activity.",
  "data": [
    {"variant": "AUAAAAGGGCCAGAACUACAGAAAUGUAGUUGACGAGGAGGAGGUUUAUCGAAUAUUCGGAGGAUGCCUCCAAA", "note": "[C8G U55A C61A]", "values": [
      {"measurement": "self-cleavage kobs at 40 uM GlcN6P", "setting": "glucosamine-6-phosphate [1]", "value": "< 1e-05", "unit": "s⁻¹"}
    ]},
    {"variant": "AUAAAAGCGCCAGAACUACAGAAAUGUAGUUGACGAGGAGGAGGUUUAUCGUAUUUUCGGCGUAUGCCUCCAAA", "note": "[A52U G63U]", "values": [
      {"measurement": "self-cleavage kobs at 40 uM GlcN6P", "setting": "glucosamine-6-phosphate [1]", "value": "< 1e-05", "unit": "s⁻¹"},
      {"measurement": "self-cleavage kobs at 160 uM GlcN6P", "setting": "glucosamine-6-phosphate [2]", "value": "< 1e-05", "unit": "s⁻¹"},
      {"measurement": "self-cleavage kobs at 10000 uM GlcN6P", "setting": "glucosamine-6-phosphate [3]", "value": "< 1e-05", "unit": "s⁻¹"}
    ]},
    {"variant": "AUAAAAGCGCCAGAACUACAGAAAUGUAGUUGACUAGGAGGAGGUUAAUCGAAUUUCCGGCGGAUGCCUCCAAA", "note": "[G35U U47A U57C]", "values": [
      {"measurement": "self-cleavage kobs at 40 uM GlcN6P", "setting": "glucosamine-6-phosphate [1]", "value": "< 1e-05", "unit": "s⁻¹"}
    ]},
    {"variant": "AUAAAAGCGCCAGAACUACAGAAAUGUAGUUGACGAGGAGGAGGAUUAUCGAAUGUUCGGCGGAUGCCUCCAAA", "note": "[U45A U55G]", "values": [
      {"measurement": "self-cleavage kobs at 40 uM GlcN6P", "setting": "glucosamine-6-phosphate [1]", "value": "0.00178 ± 0.00026", "unit": "s⁻¹"},
      {"measurement": "self-cleavage kobs at 160 uM GlcN6P", "setting": "glucosamine-6-phosphate [2]", "value": "0.00389 ± 0.0012", "unit": "s⁻¹"},
      {"measurement": "self-cleavage kobs at 640 uM GlcN6P", "setting": "glucosamine-6-phosphate [4]", "value": "0.00532 ± 0.0012", "unit": "s⁻¹"},
      {"measurement": "self-cleavage kobs at 2500 uM GlcN6P", "setting": "glucosamine-6-phosphate [5]", "value": "0.00894 ± 0.0023", "unit": "s⁻¹"},
      {"measurement": "self-cleavage kobs at 10000 uM GlcN6P", "setting": "glucosamine-6-phosphate [3]", "value": "0.0415 ± 0.013", "unit": "s⁻¹"}
    ]},
    {"variant": "AUAAAAGCGCCAGAACUACAGAAAUGUAGUUGACGAGGAGGAGGUUUAUCGAAUUUUCGGCGGAAGCCCCCAAA", "note": "[U65A U69C]", "values": [
      {"measurement": "self-cleavage kobs at 40 uM GlcN6P", "setting": "glucosamine-6-phosphate [1]", "value": "5.26e-05 ± 1.5e-05", "unit": "s⁻¹"},
      {"measurement": "self-cleavage kobs at 640 uM GlcN6P", "setting": "glucosamine-6-phosphate [4]", "value": "0.00019 ± 8.3e-05", "unit": "s⁻¹"},
      {"measurement": "self-cleavage kobs at 2500 uM GlcN6P", "setting": "glucosamine-6-phosphate [5]", "value": "0.00117 ± 0.00044", "unit": "s⁻¹"},
      {"measurement": "self-cleavage kobs at 10000 uM GlcN6P", "setting": "glucosamine-6-phosphate [3]", "value": "0.000843 ± 0.00023", "unit": "s⁻¹"}
    ]},
    {"variant": "AUAAAAUCGCCAGAACUACAGAAAUGUAGUUGACGUGGAGGAGGUUUAUCGAAAUUUCGGCAGAUGCCUCCAAA", "note": "[G7U A36U U54A G62A]", "values": [
      {"measurement": "self-cleavage kobs at 40 uM GlcN6P", "setting": "glucosamine-6-phosphate [1]", "value": "< 1e-05", "unit": "s⁻¹"}
    ]},
    {"variant": "AUAAAAGCGCCAGAACUACAGAAAUGUAGUAGACGAGGAGGAGGUUUAUCGAAUUUUCGGCCGAUGCCUGCAAA", "note": "[U31A G62C C70G]", "values": [
      {"measurement": "self-cleavage kobs at 40 uM GlcN6P", "setting": "glucosamine-6-phosphate [1]", "value": "< 1e-05", "unit": "s⁻¹"}
    ]},
    {"variant": "AUAAAAGCGCCAGAACUACAGAAAUGUAGUUGACGAGGAGGAGGUUUACCGAAUUUUCGGGGGAUGCCUCCAAA", "note": "[U49C C61G]", "values": [
      {"measurement": "self-cleavage kobs at 40 uM GlcN6P", "setting": "glucosamine-6-phosphate [1]", "value": "< 1e-05", "unit": "s⁻¹"},
      {"measurement": "self-cleavage kobs at 10000 uM GlcN6P", "setting": "glucosamine-6-phosphate [3]", "value": "< 1e-05", "unit": "s⁻¹"}
    ]},
    {"variant": "AUAAAAGCGCCAGAAUUACAGAAAUGUAGUUGACGAGGAGGAGGUUUAUCGAAUAUUCGGCGGAUGACUCCAAA", "note": "[C16U U55A C67A]", "values": [
      {"measurement": "self-cleavage kobs at 40 uM GlcN6P", "setting": "glucosamine-6-phosphate [1]", "value": "0.000154 ± 5.7e-05", "unit": "s⁻¹"},
      {"measurement": "self-cleavage kobs at 10000 uM GlcN6P", "setting": "glucosamine-6-phosphate [3]", "value": "0.00183 ± 0.00074", "unit": "s⁻¹"}
    ]},
    {"variant": "AUAAAAGCUCCAGAACUACAGAAAUGUAGUAGAUGAGGAGGAGGUUUAUCGAAUUUUCGGCGGAUGCCUCCAAA", "note": "[G9U U31A C34U]", "values": [
      {"measurement": "self-cleavage kobs at 40 uM GlcN6P", "setting": "glucosamine-6-phosphate [1]", "value": "< 1e-05", "unit": "s⁻¹"},
      {"measurement": "self-cleavage kobs at 160 uM GlcN6P", "setting": "glucosamine-6-phosphate [2]", "value": "< 1e-05", "unit": "s⁻¹"}
    ]},
    {"variant": "AUAAAAGCGCCAGAACUACAGAAAUGUAGCUGACGAGGUGGAGGUUUAUCGAAUUUUCGGCGGAUGCAUCCAAA", "note": "[U30C A39U C68A]", "values": [
      {"measurement": "self-cleavage kobs at 40 uM GlcN6P", "setting": "glucosamine-6-phosphate [1]", "value": "< 1e-05", "unit": "s⁻¹"},
      {"measurement": "self-cleavage kobs at 10000 uM GlcN6P", "setting": "glucosamine-6-phosphate [3]", "value": "< 1e-05", "unit": "s⁻¹"}
    ]},
    {"variant": "AUAAAAGCGCCAGAACUACAGAAAUGUAGAUGAUGAGGAGGAGGUUUAUCGAAUUUUCGGCGGAUGCCUCCAAA", "note": "[U30A C34U]", "values": [
      {"measurement": "self-cleavage kobs at 40 uM GlcN6P", "setting": "glucosamine-6-phosphate [1]", "value": "< 1e-05", "unit": "s⁻¹"},
      {"measurement": "self-cleavage kobs at 160 uM GlcN6P", "setting": "glucosamine-6-phosphate [2]", "value": "< 1e-05", "unit": "s⁻¹"},
      {"measurement": "self-cleavage kobs at 640 uM GlcN6P", "setting": "glucosamine-6-phosphate [4]", "value": "< 1e-05", "unit": "s⁻¹"},
      {"measurement": "self-cleavage kobs at 2500 uM GlcN6P", "setting": "glucosamine-6-phosphate [5]", "value": "< 1e-05", "unit": "s⁻¹"}
    ]},
    {"variant": "AUAAAACCGACAGAACUACAGAAAUGUAGUUGACGAGGAGGAGGUUUAUCGAAUUUUCGGCGGAUGCCUCCAAA", "note": "[G7C C10A]", "values": [
      {"measurement": "self-cleavage kobs at 40 uM GlcN6P", "setting": "glucosamine-6-phosphate [1]", "value": "< 1e-05", "unit": "s⁻¹"},
      {"measurement": "self-cleavage kobs at 2500 uM GlcN6P", "setting": "glucosamine-6-phosphate [5]", "value": "< 1e-05", "unit": "s⁻¹"},
      {"measurement": "self-cleavage kobs at 10000 uM GlcN6P", "setting": "glucosamine-6-phosphate [3]", "value": "< 1e-05", "unit": "s⁻¹"}
    ]},
    {"variant": "AUAAAGGCGCCAGAACUACAGAAAUGUAGGUGACUAGGAGGAGGCUUAUCGAAUUUUCUGCGGAUGCCUCCAAA", "note": "[A6G U30G G35U U45C G59U]", "values": [
      {"measurement": "self-cleavage kobs at 40 uM GlcN6P", "setting": "glucosamine-6-phosphate [1]", "value": "< 1e-05", "unit": "s⁻¹"},
      {"measurement": "self-cleavage kobs at 10000 uM GlcN6P", "setting": "glucosamine-6-phosphate [3]", "value": "< 1e-05", "unit": "s⁻¹"}
    ]},
    {"variant": "AUAAAAGCGCCAGAACUACAGAAAUGUAGUUGACGAGGAGGAGGUUUAUCGAAUUUUCGUCGGAUGCCUCUAAA", "note": "[G60U C71U]", "values": [
      {"measurement": "self-cleavage kobs at 40 uM GlcN6P", "setting": "glucosamine-6-phosphate [1]", "value": "< 1e-05", "unit": "s⁻¹"},
      {"measurement": "self-cleavage kobs at 160 uM GlcN6P", "setting": "glucosamine-6-phosphate [2]", "value": "< 1e-05", "unit": "s⁻¹"},
      {"measurement": "self-cleavage kobs at 640 uM GlcN6P", "setting": "glucosamine-6-phosphate [4]", "value": "< 1e-05", "unit": "s⁻¹"},
      {"measurement": "self-cleavage kobs at 10000 uM GlcN6P", "setting": "glucosamine-6-phosphate [3]", "value": "< 1e-05", "unit": "s⁻¹"}
    ]}
  ]
}
